Experiment: yeast display, Sf9 membrane polyspecificity reagent, FACS + sequencing; frameworks hold sequencing errors
Procedure, shortened: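 Nanobodies came from a synthetic yeast display library in Saccharomyces cerevisiae BJ5465, induced with galactose for 36–48 hours and stained for 1 hour at 4 °C with 10% biotinylated, detergent-solubilized Sf9 membrane reagent. Cells were enriched on streptavidin microbeads and then FACS-sorted, with low and high (top ~1%) gates set on anti-HA fluorescence for expression and streptavidin fluorescence for reagent binding. Each polyreactivity label reflects the gate a clone came from. Genes were amplified by colony PCR, sequenced by MiSeq 2 × 250 and filtered by CDR length.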

| Sequence | polyreactivity (PSR sort gate) |
| --- | --- |
| QVQLVESGGGLVQAGGSLRLSCAASGLIFENNAMGWYRQAPGKERELVAAITKGGGSTYYADSVKGRFTISRDNAKNTVYLQMNSLKPVDTAVYYCAKDHPWHRYWQYWYDYWGLGTQVTVSS | low polyreactivity |
| QVQLVESGGGLVQAGGSLRLSCAASGSTFYRNVMGWYRQAPGKERELVAAISSGGSTYYADSVKGRFTISRDNAKNTVYLQMNSLKPEDTAVYYCARRLTREYDYWGQGTQVTVSS | low polyreactivity |
| QVQLVESGGGVVQAGGSLRLSCAASVRTFPGYAMGWYRQAPGKERELVAAISWSGTSTYYADSVKGRFTISRDYAKNTVYLQMNSLKPEYTAVYDCNKVYTYSAPYYYWGQGTQVTVSS | high polyreactivity |
| QVQLVESGGGLVQAGGSLRLSCAASGLNFSGYAMGWYRQAPGKESEMVAAINSGTSTTYADSVKARFTISRDNAKNTVYLQMNSMKPDDTAVYSCSATLEGGWWATYGSDYWGRGTQVTVSS | low polyreactivity |
| QVQLVESGRGLVQAGGSLRLSCAASGSIFTTNAMGWYRQAPGKERELVAAISKSGASTYYADSVKGRVTISRDNAKNTVYLQMNSLKPEDTAVYYCAAGLRYTGRFRFYYWGQGTQVTVSS | high polyreactivity |
| QVQLVESGGGLVQAGGSLRLSCAASGRIFSGNAMGWYRQAPGKERELVARISRSGSNTYYADSVKGRFTISRDNAKNTVYLQMKSLKPEDTAVYYCAAKSTYWPYDRTYNSWGQVTQVTVSS | high polyreactivity |
| QVQLVESGGGLVQAGGSLRLSCAASGRIFRKYAMGWSRQAPGKEREFVAAISSSGGITYYADSVKGRFTISRDNAKNTVYLQMNSLKPEDTAVYYCADLYPQHRYDYWGQGTQVTVSS | high polyreactivity |
| QVQLVEAGGGLVQAGGSLRLSCAASGSTFAGYAMGWYRQAPGKERELVATITYSGGSTYYADSVKGRFTISRDNAKNTVYLQMNSLKPEDTAVYYCAKKASYWWGYEYWGQGTQVTVSS | low polyreactivity |
| QVQVVESGGGLVQAGGSLRLSCAASGRIFGVNAMGWYRQAPGKERELVAVISSGGSTYYADSVKGRFTISRDNAKKTVYLQMNSLKPEDTAVYYCNAVVGRWFPYNLSDYWGQGTQVTVSS | low polyreactivity |
| QVQLGESGGGLVQAGGSLRLSCAASGSIFSKYAKGSYRQAPGKERELVAAITMNGGSTYYADSVKGRFTISRDNAKNTVYFQMNSLKPEDTAVYYCSKSERPWWGYYYQFDYWGQGTQVTVSS | low polyreactivity |
| QVQLVESGGGLVQAGGSLRVSCAASGSIFGPYAMGLYRQAPGKERELVATSTYYADSVKGRFTISRDNAKNTVYLQMHRLKPEDTAVYYCAKTPYYSGYGWGYDYWGQGTQVTVSS | low polyreactivity |
| QDQLVDSGVGLVQAGGSLRLSCAASGLIFGRNVMGWYRQAPGKERELVAAISWSGGRTYYADSVKGRFTISRDNAKNTVYLQMNSLKPEDTAVDYCATDRSTRTYRSPYDYWGQGTQVTVSS | high polyreactivity |
| QVQLVESGGGLVQAGGSLRLSCAASGRIFGVNAMGWYRQAPGKERELVAAITSGGSTNYADSVKGRFTISRDNAKNTVYLQMNSLKPEDTAVYYCAAVNYYWGQGTQVTVSS | low polyreactivity |
| QVQLVESGGGLVQAGGSLRLSCAASGIIFLTNAMGWSRPAPAKERELVAAITAIGGSTYYADSVKGRFTISRDNAKNTVYLQMNSLKPEDTAVYYCAADFSYVYYLYDYWGQGTQVTVSS | low polyreactivity |
| QVQLVESGGGLVQAGGRLRLSCAASGITFYVYAMGWYRQAPGKVREFVAAISTRDGTTYADSVKGRFTISRDNAKNTVYLQMNRLKPEDTAVYFCAAAYYYDGQQGDFDYWGQGTQVTVSS | low polyreactivity |
| QVQLVESGGGLVQAGGSLRLSCAASGRIFYTNAMGWYRQAPGKERELVAAIDYSDSTTYYADSVKGRFTISRDNAKNTVYLQMNSLKPEDTAVYYCAAESYLYTVTFEYWGQGTQVTVSS | high polyreactivity |

| Sequence | polyreactivity (PSR sort gate) |
| --- | --- |
| QVQLVESGGGLVQAGGSLRISCAASGNSFVSNVMGWYREAPGKERELVAAISSGGRTYYADSVKGRFTISRDNAKNTVYLQMNSLKPEDTAVYYCAASYKSKYLGGGEYWGQGTQVTLSS | high polyreactivity |
| QVQLVESGGGLVQAGGSLRLSCAASGSTFWYNAMGWYRQAPGKEREFVASISFRSGRTYYADSVKGRFTISRDNAKNTVYLQMNSLKPEDTAVYYCAADYYQYKYDYWGQGTQVTVSS | high polyreactivity |
| QVQLVESGGGLVQAGGSLRLICAASGRTFAYYAMGWYIQAPGKERELVAAISSSGGRTYYADSVKGRFTISRDNAKNTVYLQMNSLKPEDTAVYFCAAYTTVKKNGYWGQGTQVTVSS | high polyreactivity |
| QVQLVESGGGLVQAGGSLRLSCAASGSIFDWYAMGWYRQAPGKEGELVAAISSGDSTYYADSVKGRFTISRDNAMNTVYLQMNSLKPEDTAVYYCAAVTKLSGIRYNYWGQGTQVTVSS | low polyreactivity |
| QVQLVESGGGLVQAGGILRLSCAASGRIIQRYAMGWYRQAPGKERELVAAISSSGVSTYYADSVKGRFTISRDNAKNTVYLQMNSLKPEDTAVYYCNAVSSRVYRDYGYDYWGQGTQVTVSS | low polyreactivity |
| QFQLVETRRGLVQAGGSLRLSCAASGSIFLENAMRRYRQAPGKERELVAVINSGDSTYYADSVKGRFTMSRDNAKNTVYLQMNSLKPEDTSVYYCAADRDVRTRVFSYDYWGQGTQVTVSS | low polyreactivity |
| QVQLVDSGGGLVQAGGSLRLSCAASGFIFVGYGMGWYRQAPGKERELVAAIDGGGSTYYADSVKGRFTISRDNAKNTVYLQMNSLKPEDTAVYYCNALPAYGWYDYDYWGQGTQVTVSS | low polyreactivity |
| QVQLVESGGGLVQAGGSLRLSCAASGLTFYFYAMGWYRQAPGKERELVAAIDWGGGSTYYADSVKGRFTISRDNAKNTVYLQMNSLKPEDTAVYYCAARGYYYNYDVNYWGQGTQVTVSS | low polyreactivity |
| QVQLVESGGGLVQAGGSLRLSCAASGFIFDDNAMGWSRQAPGKDWELVAASTSGGGSTYYADSVKGRFTISRDNAKNTVYLQMTSLKPEDTAVYYCYAVPSQPDEFDYWGQGTQATVSS | low polyreactivity |
| QVQLVESGGGLVQAGGSLRLSCAASGSTFGANAMGWYRQAPGKERELVAAITYDGGSTYYADSVKGRFTISRDTAKNTVYLQMNSLKPEDTAVYYCAADFHIDSYYWGYYWGQGTQVTVSS | low polyreactivity |
| QVQLVESGGGLVQAGGSLRLSCAASGSTFSYYAMGWYRQAPGKERELVAAITSSGGRTYYADSVKGRFTISRDNAKYTVYLQMNSLKPEDTAVYYCATRKPRYQRAFDSWGQGTQVTVSA | high polyreactivity |
| QVPVVASGGGFVQAGGRLRLSCAASGRTFFYNAMGWYRQAPGKERESTYYADSVKGRFTISRDNAKNTVYLQMNSLKPEDTAVYYFAAATAYVAYEGDKGDYWGQGTQVTVSA | low polyreactivity |
| QVQLVESGGGLVQAGGSLRLSCAASGRIFRSNAMGWYRQAPGKERELLAAISGSGSTTNYADSVKGRITISRDNAKNTVYLQMNSLKPEDTAVYYCATGKRGVSGRGFRYDYWGLGTQVTVSS | high polyreactivity |
| QVQLVESGGGLVQAGGSLRLSCAASGRIFKPYAMGWYRQAPGKERELVAAITDGGTTYYADSVKGRFTISRDNAKNTVYLQMNSLKPEDTAVYYCAADLGKLRYDYWGPGTQVTVSS | low polyreactivity |
| QVQLEESGRGLVQAGGSLPLIFAASGSIIRGYAMGWYRPAPGKERELVAAINWSGSSTYYADSVKGRLTISRDNAKNTVNLQMNSLIPEDTAVYYCALVYYNRNLGGDYWGQGTKVTVSS | low polyreactivity |
| QVHLVESGGGLVQAGGSLRLSCAASGSIFSVNDMGWYRQAPGKERELVAAISSGGSTNYADSVKGRFTISRDNAKNTVSLQMNSLKPEDTAVYYCAADFYVVYWGTYSVGYDYWGQGTQVTVSS | low polyreactivity |

— the nanobody polyreactivity screen of Harvey et al. (2022)
